# PMC13544220, “Glycemic and bodyweight effects of GIPR coding variation reflect differences in surface expression and intrinsic functional impairment” (Science Advances, 2026)
# Numbering of substitutions follows the chain as printed. Numbers in names are those of the source.
# B1: R404H (protein, UniProt P48546 22-466, looked up, variant R404H)
# Gastric inhibitory …: RAETGSKGQTAGELYQRWERYRRECQETLAAAEPPSGLACNGSFDMYVCWDYAAPNATARASCPWYLPWHHHVAAGFVLRQCGSDGQWGLWRDHTQCENPEKNEAFLDQRLILERLQVMYTVGYSLSLATLLLALLILSLFRRLHCTRNYIHINLFTSFMLRAAAILSRDRLLPRPGPYLGDQALALWNQALAACRTAQIVTQYCVGANYTWLLVEGVYLHSLLVLVGGSEEGHFRYYLLLGWGAPALFVIPWVIVRYLYENTQCWERNEVKAIWWIIRTPILMTILINFLIFIRILGILLSKLRTRQMRCRDYRLRLARSTLTLVPLLGVHEVVFAPVTEEQARGALRFAKLGFEIFLSSFQGFLVSVLYCFINKEVQSEIHRGWHHCRLRRSLGEEQRQLPERAFRALPSGSGPGEVPTSRGLSSGTLPGPGNEASRELESYC
# B2: G438S (protein, UniProt P48546 22-466, looked up, variant G438S)
# Gastric inhibitory …: B1 Gastric inhibitory … with H383R, G417S
# Key:
# Format in all cases: cell-based, human
# [1] = tested on: wild-type and variant SNAP-GIPR; test: Constitutive and agonist-mediated internalization, reversible SNAP-tag labelling, INS-1 cells; parameters: key to Internalisation, GIP-only / Internalisation, Vehicle / Internalisation, +GIP: % internalization: residual fluorescence after Mesna vs pre-Mesna; details: Mean; for +GIP internalisation (100 nM) / GIP-specific internalisation (100 nM) / Constitutive internalisation (100 nM): Fig 4G; for +GIP internalisation (100 nM) / GIP-specific internalisation (100 nM): GIP 100 nM; for Internalisation, +GIP / Internalisation, GIP-only / Internalisation, Vehicle: Fig S4C, INS-1
# Outline: (§1)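 Surface SNAP-GIPR signal removable by Mesna was tracked by imaging before and 10 min after treatment in pH 8.6 TNE buffer. Internalization is the Mesna-resistant share of specific fluorescence.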
# [2] = tested on: wild-type and variant SNAP-GIPR; test: Single-concentration GIP cAMP response by HTRF in INS-1 cells; details: Fig S3E, mean
# Method: (§2) All variants were tested in parallel on each occasion to control for transfection efficiency differences between experiments.
# [3] = tested on: wild-type and variant SNAP-GIPR; test: Constitutive and agonist-mediated internalization, reversible SNAP-tag labelling, AD293 cells; parameters: key to Internalisation, Vehicle / Internalisation, +GIP / Internalisation, GIP-only: % internalization: residual fluorescence after Mesna vs pre-Mesna; Surface expression: unit not given here; details: Mean; for +GIP internalisation (100 nM) / GIP-specific internalisation (100 nM) / Constitutive internalisation (100 nM) / Surface expression: Fig 4E; for +GIP internalisation (100 nM) / GIP-specific internalisation (100 nM): GIP 100 nM; for Internalisation, +GIP / Internalisation, GIP-only / Internalisation, Vehicle: Fig S4C, AD293
# Outline: as §1
# [4] = tested on: wild-type and variant SNAP-GIPR; test: Surface SNAP-GIPR expression (SNAP-tag labelling) in AD293 cells; details: for AD293 Surface: Fig S3E, mean; for Surface SNAP-GIPR expression: sheet Fig 1C;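 as to all read-outs here: scaled to the experimental average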
# Outline: (§3)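 Surface GIPR is quantified from wide-field images after labelling intact transfected cells with a membrane-impermeant SNAP probe at 500 nM for 10 min at room temperature. Specific signal, corrected for nontransfected cells, is normalized to the experiment-wide average or to wild-type.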
# [5] = tested on: wild-type and variant SNAP-GIPR; test: cADDis cAMP imaging in AD293 cells, ensemble, expression-matched and per decile; details: Fig S3F, cADDis, mean
# Outline: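 Transient SNAP-GIPR plus cADDis BacMam in AD293; 24 h; SNAP-Surface AF647 500 nM, 10 min RT; wide-field 10X imaging at 37°C in KRBH/6 mM glucose/0.1% BSA. Cells failing IBMX/FSK response criteria excluded.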
# [6] = tested on: wild-type and variant SNAP-GIPR; test: Surface SNAP-GIPR expression (SNAP-tag labelling) in INS-1 cells; details: Fig 4G; Mean
# Outline: as §3
# [7] = tested on: wild-type and variant SNAP-GIPR; test: Single-concentration GIP cAMP response by HTRF in AD293 cells; details: Fig S3F, HTRF, mean;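 also: ratio to experiment-wide average response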
# Method: as §2
# [8] = column repeated, paired with cAMP 100 nM
molecule,measurement,setting,value
B1,+GIP internalisation (100 nM),[1],0.3918
same,GIP-specific internalisation (100 nM),[1],0.07675
same,Constitutive internalisation (100 nM),[1],0.3151
same,"Internalisation, +GIP",[1],48.5
same,"Internalisation, GIP-only",[1],9.682
same,"Internalisation, Vehicle",[1],38.8183
same,INS-1 cAMP (100 nM),[2],0.9867
same,+GIP internalisation (100 nM),[3],0.4112
same,GIP-specific internalisation (100 nM),[3],0.07509
same,Constitutive internalisation (100 nM),[3],0.3361
same,Surface expression,[3],0.7754
same,"Internalisation, +GIP",[3],56.8624
same,"Internalisation, GIP-only",[3],10.8785
same,"Internalisation, Vehicle",[3],45.9839
same,AD293 Surface,[4]; [8],0.7424
same,AD293 Surface,[4]; paired with cAMP 100 pM,0.7424
same,Surface SNAP-GIPR expression,[4]; replicate 1,0.7731
same,Surface SNAP-GIPR expression,[4]; replicate 2,0.8601
same,Surface SNAP-GIPR expression,[4]; replicate 3,1.364
same,Surface SNAP-GIPR expression,[4]; replicate 4,1.202
same,Surface SNAP-GIPR expression,[4]; replicate 5,0.6596
same,Surface SNAP-GIPR expression,[4]; replicate 6,0.8044
same,Surface SNAP-GIPR expression,[4]; replicate 7,1.014
same,Surface SNAP-GIPR expression,[4]; replicate 8,0.8566
same,Surface SNAP-GIPR expression,[4]; replicate 9,0.836
same,Surface SNAP-GIPR expression,[4]; replicate 10,0.8174
same,Surface SNAP-GIPR expression,[4]; replicate 11,0.6917
same,Surface SNAP-GIPR expression,[4]; replicate 12,0.5756
same,Surface SNAP-GIPR expression,[4]; replicate 13,0.812
same,Surface SNAP-GIPR expression,[4]; replicate 14,0.5735
same,Surface SNAP-GIPR expression,[4]; replicate 15,0.518
same,Surface SNAP-GIPR expression,[4]; replicate 16,0.5844
same,Surface SNAP-GIPR expression,[4]; replicate 17,0.7582
same,Surface SNAP-GIPR expression,[4]; replicate 18,0.6508
same,Surface SNAP-GIPR expression,[4]; replicate 19,0.4867
same,Surface SNAP-GIPR expression,[4]; replicate 20,0.616
same,Surface SNAP-GIPR expression,[4]; replicate 21,0.5336
same,Surface SNAP-GIPR expression,[4]; replicate 22,0.6715
same,Surface SNAP-GIPR expression,[4]; replicate 23,0.7341
same,Surface SNAP-GIPR expression,[4]; replicate 24,0.6837
same,Surface SNAP-GIPR expression,[4]; replicate 25,0.9077
same,Surface SNAP-GIPR expression,[4]; replicate 26,0.65
same,Surface SNAP-GIPR expression,[4]; replicate 27,0.7009
same,Surface SNAP-GIPR expression,[4]; replicate 28,0.5824
same,Surface SNAP-GIPR expression,[4]; replicate 29,0.9349
same,Surface SNAP-GIPR expression,[4]; replicate 30,0.779
same,Surface SNAP-GIPR expression,[4]; replicate 31,0.9227
same,Surface SNAP-GIPR expression,[4]; replicate 32,0.586
same,Surface SNAP-GIPR expression,[4]; replicate 33,0.6419
same,Surface SNAP-GIPR expression,[4]; replicate 34,0.7664
same,Surface SNAP-GIPR expression,[4]; replicate 35,0.5787
same,Surface SNAP-GIPR expression,[4]; replicate 36,0.8557
same,Surface SNAP-GIPR expression,[4]; replicate 37,0.7468
same,Surface SNAP-GIPR expression,[4]; replicate 38,0.7266
same,Surface SNAP-GIPR expression,[4]; replicate 39,0.577
same,Surface SNAP-GIPR expression,[4]; replicate 40,0.6491
same,Surface SNAP-GIPR expression,[4]; replicate 41,0.7544
same,AD293 100 pM cADDis,[5],26.6869
same,AD293 100 nM cADDis,[5],37.59
same,Surface expression,[6],0.8156
same,AD293 100 pM HTRF,[7],0.3628
same,AD293 100 nM HTRF,[7],1.255
B2,+GIP internalisation (100 nM),[1],0.7615
same,GIP-specific internalisation (100 nM),[1],0.2318
same,Constitutive internalisation (100 nM),[1],0.5297
same,"Internalisation, +GIP",[1],53.475
same,"Internalisation, GIP-only",[1],16.2333
same,"Internalisation, Vehicle",[1],37.2417
same,INS-1 cAMP (100 nM),[2],1.306
same,+GIP internalisation (100 nM),[3],0.9894
same,GIP-specific internalisation (100 nM),[3],0.334
same,Constitutive internalisation (100 nM),[3],0.6554
same,Surface expression,[3],1.622
same,"Internalisation, +GIP",[3],61.1161
same,"Internalisation, GIP-only",[3],20.3657
same,"Internalisation, Vehicle",[3],40.7504
same,AD293 Surface,[4]; [8],1.603
same,AD293 Surface,[4]; paired with cAMP 100 pM,1.603
same,Surface SNAP-GIPR expression,[4]; replicate 1,1.682
same,Surface SNAP-GIPR expression,[4]; replicate 2,1.688
same,Surface SNAP-GIPR expression,[4]; replicate 3,1.832
same,Surface SNAP-GIPR expression,[4]; replicate 4,2.161
same,Surface SNAP-GIPR expression,[4]; replicate 5,1.111
same,Surface SNAP-GIPR expression,[4]; replicate 6,1.49
same,Surface SNAP-GIPR expression,[4]; replicate 7,1.615
same,Surface SNAP-GIPR expression,[4]; replicate 8,1.417
same,Surface SNAP-GIPR expression,[4]; replicate 9,1.842
same,Surface SNAP-GIPR expression,[4]; replicate 10,1.526
same,Surface SNAP-GIPR expression,[4]; replicate 11,1.806
same,Surface SNAP-GIPR expression,[4]; replicate 12,1.746
same,Surface SNAP-GIPR expression,[4]; replicate 13,1.595
same,Surface SNAP-GIPR expression,[4]; replicate 14,2.152
same,Surface SNAP-GIPR expression,[4]; replicate 15,1.581
same,Surface SNAP-GIPR expression,[4]; replicate 16,1.661
same,Surface SNAP-GIPR expression,[4]; replicate 17,1.607
same,Surface SNAP-GIPR expression,[4]; replicate 18,1.471
same,Surface SNAP-GIPR expression,[4]; replicate 19,1.527
same,Surface SNAP-GIPR expression,[4]; replicate 20,1.649
same,Surface SNAP-GIPR expression,[4]; replicate 21,1.401
same,Surface SNAP-GIPR expression,[4]; replicate 22,1.64
same,Surface SNAP-GIPR expression,[4]; replicate 23,1.516
same,Surface SNAP-GIPR expression,[4]; replicate 24,1.737
same,Surface SNAP-GIPR expression,[4]; replicate 25,1.567
same,Surface SNAP-GIPR expression,[4]; replicate 26,1.448
same,Surface SNAP-GIPR expression,[4]; replicate 27,1.549
same,Surface SNAP-GIPR expression,[4]; replicate 28,1.925
same,Surface SNAP-GIPR expression,[4]; replicate 29,1.515
same,Surface SNAP-GIPR expression,[4]; replicate 30,1.373
same,Surface SNAP-GIPR expression,[4]; replicate 31,1.117
same,Surface SNAP-GIPR expression,[4]; replicate 32,1.576
same,Surface SNAP-GIPR expression,[4]; replicate 33,1.347
same,Surface SNAP-GIPR expression,[4]; replicate 34,1.595
same,Surface SNAP-GIPR expression,[4]; replicate 35,1.243
same,Surface SNAP-GIPR expression,[4]; replicate 36,1.381
same,Surface SNAP-GIPR expression,[4]; replicate 37,1.612
same,Surface SNAP-GIPR expression,[4]; replicate 38,1.594
same,Surface SNAP-GIPR expression,[4]; replicate 39,1.863
same,Surface SNAP-GIPR expression,[4]; replicate 40,1.797
same,Surface SNAP-GIPR expression,[4]; replicate 41,1.787
same,AD293 100 pM cADDis,[5],35.9341
same,AD293 100 nM cADDis,[5],39.48
same,Surface expression,[6],1.361
same,AD293 100 pM HTRF,[7],1.746
same,AD293 100 nM HTRF,[7],1.655
